In PMC10732425:

What was measured:
[1] = biological target: T1, RhlR:mBTL (Pseudomonas aeruginosa (PA14?)) (UniProt P54292); assay: EMSA; conditions: […] (17 of 20 uL): 200 mM KCl, 50 mM Tris-HCl pH 7.5, 250 ug/mL BSA, 50 mM NaCl, 5 nM EDTA, 5 uM MgCl2, 5 uM DTT ([…], RT 15 min
T1 sequence: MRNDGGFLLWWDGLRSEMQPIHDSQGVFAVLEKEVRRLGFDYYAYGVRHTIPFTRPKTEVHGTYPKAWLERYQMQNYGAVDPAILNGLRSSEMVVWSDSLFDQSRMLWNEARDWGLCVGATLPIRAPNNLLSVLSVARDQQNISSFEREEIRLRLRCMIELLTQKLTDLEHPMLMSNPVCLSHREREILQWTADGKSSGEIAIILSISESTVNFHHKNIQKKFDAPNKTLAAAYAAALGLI

[2] = biological target: RhlR:mBTL;PqsE (Pseudomonas aeruginosa (PA14?);Pseudomonas aeruginosa (PA14?)) (UniProt P54292+A0A0H2Z6F6); assay: EMSA; conditions: […] (17 of 20 uL): 200 mM KCl, 50 mM Tris-HCl pH 7.5, 250 ug/mL BSA, 50 mM NaCl, 5 nM EDTA, 5 uM MgCl2, 5 uM DTT ([…], RT 15 min

**Q.** Which binding [1] does the source give for “GGGGCTTGTGTGGGTCTTGCAGATCGGCCTGCGCAAACGATTGGCGTCCGTGTTCACGCGTAGCCGATGAACACTTTTTAGCCAATTCGAAAGCTAACGGTAACTGCCAGATTTCACAGGACGGGCGGTCGCCTGCGCATAAGCCCCTGCCCGCCCGCGATAAGGCGTGCCAGAGCGGCCGGCGGGGAACAGCGAGGGGTTGGCGGAAAAGGCATGAAAA (double strand) [rhlA promoter fragment]” here?
**A.** binds

**Q.** What about the binding [2] of the same sequence?
**A.** binds

**Q.** For “TATGGCGTGTCGGGAGAGATCCGCAGTCCTTGGCGGCAGGCGATGCGCAGGCAGGAAGGACGCATCGTTCAGCCAATCTACGCCGTCGACCGGGCGCGACCACTGCTAGAGTTCGCAGGAGGGCTACAGGGGTGTCCTGGCACTGGCGATGCATGGCCCGGTGCCGGTCTATGGCAGCCGCCTGCCGGCCCACTCGTTCGATTGTTACGCTGTCTGTAAT (double strand) [lecB promoter fragment]”, which binding [2] is on record?
**A.** binds

**Q.** How did the binding [2] turn out when “TGGATGGTCATGTCTGCCCGCGAGAGGGGCTGGATATCGTGTTGACGTTCAAGAAGGTGCATTGCCCTTTCATCCGTGAGAGAGAGTCGGGAGCCGGCGACACTAGGAGTCGGGCCGGGCGCGGACATTGATCCATGACAGGTGGGTATCTTCCCCTGCCAATTCTGGTAGGTGGGGTGCAGGTGTTCGCGCGGAAAAGTCGAACCCGCGCCTACCCCAG (double strand) [hcnA promoter fragment]” was run?
**A.** binds
